Data on one molecule can be found in patent US20230312756A1 (MacroGenics, published 2023).

The assay concerns the target T1, PD-1 on circulating T cells of patients (human, UniProt Q15116 25-288).
T1 construct: whole, on cells; Probably the same protein as m2
Nature of the assay: receptor occupancy by flow cytometry on blood of patients treated with DART-D. On the procedure: Receptor Occupancy (RO): One hundred microliter […] volumes of whole blood samples (per time point/per patient) were incubated with saturating concentration of DART-D, followed by lysis and detection of DART-D by biotinylated anti-drug mAb/Strep-PE in “DART-D-spiked” and control samples. After subtraction of background fluorescence (Step-PE only), RO values were calculated as a fraction of maximal binding capacity: RO=(untreated MFI(PE)−background MFI(PE))/(treated MFI(PE)−background MFI(PE)).
(In general: In flow cytometry, cells or beads pass a laser one at a time.)

T1 sequence (Q15116 25-288): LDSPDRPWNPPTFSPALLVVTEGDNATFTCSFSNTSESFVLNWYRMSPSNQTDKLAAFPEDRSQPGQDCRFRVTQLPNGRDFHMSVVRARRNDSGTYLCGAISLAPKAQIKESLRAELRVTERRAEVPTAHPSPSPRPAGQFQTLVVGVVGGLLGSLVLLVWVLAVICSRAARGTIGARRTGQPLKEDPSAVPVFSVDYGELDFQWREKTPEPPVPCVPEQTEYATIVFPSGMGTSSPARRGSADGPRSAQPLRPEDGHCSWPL

B1: DART-D (bispecific antibody, human IgG4 S228P)
chain 1: EIVLTQSPATLSLSPGERATLSCRASESVDNYGMSFMNWFQQKPGQPPKLLIHAASNQGSGVPSRFSGSGSGTDFTLTISSLEPEDFAVYFCQQSKEVPYTFGGGTKVEIKGGGSGGGGQVQLVESGGGVVQPGRSLRLSCAASGFTFSSYTMHWVRQAPGKGLEWVTFISYDGSNKHYADSVKGRFTVSRDNSKNTLYLQMNSLRAEDTAIYYCARTGWLGPFDYWGQGTLVTVSSGGCGGGEVAACEKEVAALEKEVAALEKEVAALEKESKYGPPCPPCPAPEFLGGPSVFLFPPKPKDTLYITREPEVTCVVVDVSQEDPEVQFNWYVDGVEVHNAKTKPREEQFNSTYRVVSVLTVLHQDWLNGKEYKCKVSNKGLPSSIEKTISKAKGQPREPQVYTLPPSQEEMTKNQVSLTCLVKGFYPSDIAVEWESNGQPENNYKTTPPVLDSDGSFFLYSRLTVDKSRWQEGNVFSCSVMHEALHNHYTQKSLSLSLG
chain 2: not shown
notes: Tetravalent (2x2) four-chain Fc-bearing diabody, two sites for PD-1 and two for CTLA-4; also called MGD019; PD-1×CTLA-4 bispecific molecule
B1: the binding result is “binds”.
